Target: FLAG-tagged C-terminally truncated RPS0A (residues 1–197) (S. cerevisiae) (UniProt P32905)
Assay: co-IP; WCE of H2880 wt cells overexpressing wt or C-terminally truncated RPS0A-FLAG; anti-FLAG M2 affinity matrix, 60 min, 4°C, buffer A200T (200 mM KCl, 20 mM Tris pH 8, 5 mM Mg acetate, 1 mM DTT, 0.2% Triton X-100); whole 40S subunits with their associated eIFs are recovered through the tagged RPS0A; Western blot, normalised to ASC1 (Figure 5B)

Chain of UniProt P32905 (P32905 1-197): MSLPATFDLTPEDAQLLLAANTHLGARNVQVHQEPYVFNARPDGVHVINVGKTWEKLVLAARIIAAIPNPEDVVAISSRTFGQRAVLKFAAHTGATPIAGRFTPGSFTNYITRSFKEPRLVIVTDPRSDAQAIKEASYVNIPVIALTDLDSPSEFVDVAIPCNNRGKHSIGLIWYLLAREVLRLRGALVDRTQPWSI

percent reduction of the co-purified amount against wt RPS0A-FLAG: 70%
Substance: eIF2 (from UniProt P32481 1-527) (complex)

From article PMC3390373
